Data set [1] has as its target T1, FLAG-REST (810-910)-GFP reporter peptide, unmutated.
T1 chain: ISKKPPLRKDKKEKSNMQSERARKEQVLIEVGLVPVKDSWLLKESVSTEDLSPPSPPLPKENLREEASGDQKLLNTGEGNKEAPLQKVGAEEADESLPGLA

Data set [2] addresses T2, FLAG-REST (unmutated, full-length), Q13127.
T2 chain: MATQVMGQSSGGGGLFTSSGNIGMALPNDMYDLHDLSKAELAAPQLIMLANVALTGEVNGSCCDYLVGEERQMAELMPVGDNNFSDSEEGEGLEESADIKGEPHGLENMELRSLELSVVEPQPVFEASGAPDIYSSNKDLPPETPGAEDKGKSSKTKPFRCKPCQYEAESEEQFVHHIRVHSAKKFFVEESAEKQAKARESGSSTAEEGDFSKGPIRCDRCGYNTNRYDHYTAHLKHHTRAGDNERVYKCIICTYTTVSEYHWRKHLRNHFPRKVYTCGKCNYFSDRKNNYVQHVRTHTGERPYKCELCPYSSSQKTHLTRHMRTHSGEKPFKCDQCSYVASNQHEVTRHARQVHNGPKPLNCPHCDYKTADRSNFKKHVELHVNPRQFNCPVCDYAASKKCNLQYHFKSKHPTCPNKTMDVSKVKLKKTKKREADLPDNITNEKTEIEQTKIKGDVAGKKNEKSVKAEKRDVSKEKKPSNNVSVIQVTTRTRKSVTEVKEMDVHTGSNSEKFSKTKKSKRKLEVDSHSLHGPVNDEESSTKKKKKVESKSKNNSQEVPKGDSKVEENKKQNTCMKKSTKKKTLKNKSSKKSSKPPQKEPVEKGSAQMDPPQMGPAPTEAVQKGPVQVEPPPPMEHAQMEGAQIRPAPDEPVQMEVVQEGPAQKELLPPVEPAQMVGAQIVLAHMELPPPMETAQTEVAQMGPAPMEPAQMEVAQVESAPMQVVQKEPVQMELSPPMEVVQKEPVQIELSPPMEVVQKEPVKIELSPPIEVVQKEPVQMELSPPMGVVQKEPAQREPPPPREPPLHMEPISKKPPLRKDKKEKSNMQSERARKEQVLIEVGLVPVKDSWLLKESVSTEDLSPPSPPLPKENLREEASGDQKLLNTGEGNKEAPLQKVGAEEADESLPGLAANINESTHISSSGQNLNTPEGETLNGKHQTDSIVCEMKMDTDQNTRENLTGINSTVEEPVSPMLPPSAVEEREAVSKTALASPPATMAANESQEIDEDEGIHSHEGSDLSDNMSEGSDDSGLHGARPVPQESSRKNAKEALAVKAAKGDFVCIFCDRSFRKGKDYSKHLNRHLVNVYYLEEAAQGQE

B1: FLAG-CTDSP1 (protein)
chain: MDSSAVITQISKEEARGPLRGKGDQKSAASQKPRSRGILHSLFCCVCRDDGEALPAHSGAPLLVEENGAIPKQTPVQYLLPEAKAQDSDKICVVIDLDETLVHSSFKPVNNADFIIPVEIDGVVHQVYVLKRPHVDEFLQRMGELFECVLFTASLAKYADPVADLLDKWGAFRARLFRESCVFHRGNYVKDLSRLGRDLRRVLILDNSPASYVFHPDNAVPVASWFDNMSDTELHDLLPFFEQLSRVDDVYSVLRQPRPGS
For B1, in data set [1], the “in-gel GFP fluorescence on native gel (mobility shift)” value was “Dephosphorylation by CTDSP1 was also observed in the REST reporter peptides”. Also, in data set [2], the “Western blot with REST phospho-specific polyclonal antibody” value is on record as “exogenously expressed FLAG-CTDSP1 dephosphorylated these sites in full-length REST”.

(Values after patent US20160031958.)
